US20260265800A1, “NEW FUCOSYLTRANSFERASES FOR IN VIVO SYNTHESIS OF LNFP-III” (DSM IP Assets B.V., priority 2022, published 2026)

B1: Parm1: α-1,3-fucosyltransferase from Parabacteroides merdae, GenBank WP_129943149.1, SEQ ID NO: 2 (protein, listed as Parabacteroides merdae)
chain: MKHETPVLSFIIPIYNVELYLPACLESVLHLPLTNFEIILIDDGSTDNSGRIADKYAENYSHIHVIHQTNAGLSATRNRGVELAEGNYIAFLDSDDWLIGDQIVDIYLQTSQANADMGMGNSLFCYPDGSNGNPFAPIPQNLIGQTIDGKYCFTELMKQNVYPPMVYNYIYRREWLLSHQLRFESVLHEDELWTPIALCYARRIVVTNIDFYGYRQREGSIMTSLRREKRIHDLFFIADRLIRLAENYRFDSDDKNLKSQLYVRSYLLYKIAFSSLAHIHDTRFILPTHHLYQLFAIKNKLTADARNTCINQYKTAKQGLKSYLKWRNSYWIRKLTYEISPETKLILIFNTMWNKPLDIPIQKIPANCIITTDRRFLSTADFVVFHLPDLSNELEEDLDKPEGQKWVAWSLECEENYHFLKDPEFMEVFDYKMSYHQDADIVYPYYRYEYRKELILMPEFSFHEKKDICMMISSPFNQSGRQEYLQELMQYISIDSYGKLFNNCKLEKDSGQDSKMELYRQYKFVIAFENSRANDYVTEKFYDPLLAGAVPIYLGAPNIETFAPGENCSVDIRNFSSPKELAAFLIEACKNEKIYNKFLQWKKEPLKPEFMKKIEAQRVHPFIRLCHLLHLPPPTSRYDGARKKNAHRS
B2: PglpF: promoter sequence, SEQ ID NO: 28; positive reference of the LacZ assay (nucleic acid, listed as Escherichia coli)
DNA: GCGGCACGCCTTGCAGATTACGGTTTGCCACACTTTTCATCCTTCTCCTGGTGACATAATCCACATCAATCGAAAATGTTAATAAATTTGTTGCGCGAATGATCTAACAAACATGCATCATGTACAATCAGATGGAATAAATGGCGCGATAACGCTCATTTTATGACGAGGCACACACATTTTAAGTTCGATATTTCTCGTTTTTGCTCGTTAACGATAAGTTTACAGCATGCCTACAAGCATCGTGGAGGTCCGTGACTTTCACGCATACAACAAACATTAACCAAGGAGGAAACAGCT
B3: Plac_wt: promoter sequence, SEQ ID NO: 37 (nucleic acid, listed as Escherichia coli)
DNA: TGTGAGTTAGCTCACTCATTAGGCACCCCAGGCTTTACACTTTATGCTTCCGGCTCGTATGTTGTGTGGAATTGTGAGCGGATAACAATTTCACACAGGAAACAGCT
modifications: expressed or natural sequence

Tests used:
LNnT = assay: Deep well assay: HMO profile of LNnT-producing strains expressing α-1,3-fucosyltransferases (HPLC); type: cell-based, Escherichia coli
Protocol: Deep Well Assays in the current examples were performed as originally described to Lv et al (Bioprocess Biosyst Eng 20 (2016) 39:1737-1747) and optimized for the purposes of the current invention. More specifically, the strains disclosed in the present example were screened in 96 deep well plates using a 4-day protocol. During the first 24 hours, precultures were grown to high densities (OD600 up to 5) and subsequently transferred to a medium that allowed induction of gene expression and product formation.
More specifically, during day 1, fresh precultures were prepared using a basal minimal medium (BMM) (pH 7.0) supplemented with magnesium sulphate (0.12 g/L), thiamine (0.004 g/L) and glucose (5.5 g/L). Basal Minimal medium had the following composition: NaOH (1 g/L), KOH (2.5 g/L), KHzPO4 (7 g/L), NH&HzPO4 (7 g/L), Citric acid (0.5 g/l), trace mineral solution (5 mL/L). The trace mineral stock solution contained; ZnSO~*7H~O 0.82 g/L, Citric acid 20 g/L, Mn$04*H&O 0.98 g/L, FeSO4*7H&O 3.925 g/L, CuSO4*5H~O 0.2 g/L. The pH of the Basal Minimal Medium was adjusted to 7.0 with 5 N NaOH and autoclaved. The precultures were incubated for 24 hours at 34° C. and 1000 rpm shaking and then further transferred to 0.75 ml of a new BMM (pH 7,5) to start the main culture. The new BMM was supplemented with magnesium sulphate (0.12 g/L), thiamine (0.02 g/L), a bolus of glucose solution (0.1-0.15 g/L) and a bolus of lactose solution (5-20 g/L) Moreover, a 20% stock solution of sucrose (40-45 g/L) or maltodextrin (19-20 g/L) was provided as carbon source, accompanied by the addition of a specific hydrolytic enzyme, sucrose hydrolase or glycoamylase, respectively, so that glucose was released at a rate suitable for carbon-limited growth and similar to that of a typical fed-batch fermentation process. The main cultures were incubated for 72 hours at 28° C. and 1000 rpm shaking. For the analysis of total broth, the 96 well plates were boiled at 100° C., subsequently centrifuged, and finally the supernatants were analysed by HPLC.
Genetically modified cells expressing individual α-1,3-fucosyltransferase enzymes were screened for their ability to produce the fucosylated HMO LNFP-III.
Genetically modified strains expressing the six individual α-1,3-fucosyltransferases (table 5) were generated as described in the “Method” section. The cells were screened in the deep well assay setup as described in the “Method” section.
The molar content of individual HMOs produced by the strains was measured by HPLC.
The results of the LNFP-III producing cells are shown in table 7 as the fraction of the total molar HMO content (in percentage, %) produced by each strain.

β-galactosidase activity [1] = assay: LacZ assay of promoter strength; type: cell-based; conditions: LacZ assay at 30° C.; Plac induced with IPTG
Protocol: Increasing the promoter strength driving the expression of the desired enzyme may be one way of doing this. The strength of a promoter can be assessed using a lacZ enzyme assay where β-galactosidase activity is assayed as described previously (see e.g., Miller J. H. Experiments in molecular genetics, Cold spring Harbor Laboratory Press, NY, 1972). Briefly the cells are diluted in Z-buffer and permeabilized with sodium dodecyl sulfate (0.1%) and chloroform. The LacZ assay is performed at 30° C. Samples are preheated, the assay initiated by addition of 200 μl ortho-nitro-phenyl-β-galactosidase (4 mg/ml) and stopped by addition of 500 μl of 1 M Na2CO3 when the sample had turned slightly yellow. The release of ortho-nitrophenol is subsequently determined as the change in optical density at 420 nm. The specific activities are reported in Miller Units (MU) [A420/(min*ml*A600)]. A regulatory element with an activity above 10,000 MU is considered strong and a regulatory element with an activity below 3,000 MU is considered weak, what is in between has intermediate strength. An example of a strong regulatory element is the PglpF promoter with an activity of approximately 14.000 MU and an example of a weak promoter is Plac which when induced with IPTG has an activity of approximately 2300 MU. […]

β-galactosidase activity [2] = conditions: LacZ assay, cited from earlier work; for % Activity relative to PglpF: PglpF as positive reference, a range indicates results from multiple assays
[3] = two genomic copies and high copy plasmid (pUC57-Parm1-PglpF)

| Molecule | LNnT, % of total HMO molar (mM) content produced by each strain (LNnT; FT copy nr as in table 7) | amount of LNnT produced, % of the total HMO content (LNnT; two genomic copies) | relative amount of LNFP-III produced, % of the total HMO content (LNnT; two genomic copies) | amount of LNnT produced, % of the total HMO content (LNnT; [3]) | relative amount of LNFP-III produced, % of the total HMO content (LNnT; [3]) | promoter activity in Miller Units (β-galactosidase activity [1]) | % Activity relative to PglpF (β-galactosidase activity [2]) | Strength (β-galactosidase activity [2]) |
| --- | --- | --- | --- | --- | --- | --- | --- | --- |
| B1 | 21% | 14% | 81% | 5% | 86% |  |  |  |
| B2 |  |  |  |  |  | approximately 14.000 MU | 100% | high (A regulatory element with an activity above 10,000 MU is considered strong) |
| B3 |  |  |  |  |  | approximately 2300 MU | 15-28% | low (a regulatory element with an activity below 3,000 MU is considered weak) |
